For test [1], the target named is β-subunit of ATP synthase (F1 fraction) exposed on submitochondrial particles. As to the kind of experiment: competition with 5 µg/ml 125I-labeled HDL3 on submitochondrial particles, 2 h at 4 °C.
Test [2] shares this target. Put plainly: binding of 5 µg/ml 125I-labeled HDL3 to submitochondrial particles, 2 h at 4 °C, no competitor. The conditions noted are these: scale: ng HDL3 protein bound per mg of mitochondrial proteins.
Test [3] concerns the target total solubilised porcine liver plasma membrane proteins. As to the kind of experiment: SPR (Biacore 3000, B1 chip), apoA-I immobilised by amine coupling, solubilised membrane proteins injected. For orientation: In SPR one partner is held on a chip, and binding of the other changes the refractive index at the surface.
The target of test [4] is porcine liver plasma membrane proteins eluted from apoA-I affinity chromatography. Put plainly: SPR (Biacore), 1.5 µg of proteins injected on the apoA-I sensor chip.

By Kd is commonly meant the constant that tells how readily two partners part at equilibrium.

In test [1], HDL3 (from UniProt P02647 19-267) displayed an IC50 (read off the curve) of 800 nM. The 100% specific binding in test [2] amounted to 2050.

Regarding “lipid free-apolipoprotein A-I (free-apoA-I) (from UniProt P02647 25-267) (ligand)”, the Kd in test [3] stood at 1 nM. Further, in test [4], the relative increase of binding against crude solubilised homogenate was 4 fold.
